Test results: patent US7432365B1, “DNA molecules encoding beta clamp proteins of gram positive bacteria” (priority 1998, dated 2008)
Several values for one entry are separate records, joined by “and”; a condition that tells them apart may be missing. Equal entries are not always repeated.

Key:
Pol III-L = Pol III-L (Bacillus subtilis, UniProt P13267); details: Pol III-L, 0.15 M KCl; cited from earlier work
Pol II = details: 0.15 M KCl; cited from earlier work
Pol I = Pol I (Bacillus subtilis, UniProt O34996); details: 0.15 M KCl; cited from earlier work
[1] = biological target: Escherichia coli DNA polymerase III core (Escherichia coli) (UniProt P10443); assay: cell-based or functional assay
[2] = biological target: Staphylococcus aureus Pol III-L (α-large, polC gene product) (Staphylococcus aureus) (UniProt P0C1P9); assay: cell-based or functional assay
[3] = tested on: singly primed M13mp18 ssDNA; assay: Time course of primer extension on singly primed M13mp18 ssDNA, DnaE polymerase; format: biochemical; details: saturating concentration of DnaE
Protocol: The S. pyogenes DnaE (α-small) polymerase is more homologous to E. coli a than S. pyogenes PolC. Thus, it seems reasonable to expect that the DnaE polymerase may also function with the β clamp (FIGS. 21A-B). To test DnaE for function with τδδ′ and β, replication reactions contained 70 ng (25 fmol) of 30-mer singly primed M13 mp18 ssDNA, 0.82 μg of S. pyogenes SSB, and 3.3 ng-300 ng of DnaE (25 fmol −2.3 pmol) in 23.5 μl of 20 mM Tris-HCl (pH 7.5), 4% glycerol, 0.1 mM EDTA, 5 mM dithiothreitol (DTT), 40 μg/ml BSA, 2 mM ATP, 8 mM MgCl2, and 60 μM each of dGTP and dCTP. When present, reactions included 43.3 ng of β and 10 ng of τδδ′. Reactions were preincubated for 3 min at 37° C., and then NaCl was added to 40 mM followed by another 2 min at 37° C. DNA synthesis was initiated upon addition of 1.5 μl of 1.5 mM dATP, 0.5 mM [α^32P]-dTTP (specific activity 2,000-4,000 cpm/pmol). Aliquots of 25 μl were removed at the indicated times and quenched with an equal volume (25 μl) of 1% SDS, 40 mM EDTA. One-half of the quenched reaction was analyzed for total deoxynucleotide incorporation using DE81 filter paper and the other half was analyzed on a 0.8% neutral agarose gel. The effect of TMAU was also examined, in which 100 μM TMAU in DMSO (2% DMSO final concentration) was present. In this case, replication was allowed to proceed for 1 min before being quenched with […] of 1% SDS, 40 mM EDTA. […]

Sequence of Staphylococcus aureus Pol III-L (α-large, polC gene product) (Staphylococcus aureus) (P0C1P9 whole entry): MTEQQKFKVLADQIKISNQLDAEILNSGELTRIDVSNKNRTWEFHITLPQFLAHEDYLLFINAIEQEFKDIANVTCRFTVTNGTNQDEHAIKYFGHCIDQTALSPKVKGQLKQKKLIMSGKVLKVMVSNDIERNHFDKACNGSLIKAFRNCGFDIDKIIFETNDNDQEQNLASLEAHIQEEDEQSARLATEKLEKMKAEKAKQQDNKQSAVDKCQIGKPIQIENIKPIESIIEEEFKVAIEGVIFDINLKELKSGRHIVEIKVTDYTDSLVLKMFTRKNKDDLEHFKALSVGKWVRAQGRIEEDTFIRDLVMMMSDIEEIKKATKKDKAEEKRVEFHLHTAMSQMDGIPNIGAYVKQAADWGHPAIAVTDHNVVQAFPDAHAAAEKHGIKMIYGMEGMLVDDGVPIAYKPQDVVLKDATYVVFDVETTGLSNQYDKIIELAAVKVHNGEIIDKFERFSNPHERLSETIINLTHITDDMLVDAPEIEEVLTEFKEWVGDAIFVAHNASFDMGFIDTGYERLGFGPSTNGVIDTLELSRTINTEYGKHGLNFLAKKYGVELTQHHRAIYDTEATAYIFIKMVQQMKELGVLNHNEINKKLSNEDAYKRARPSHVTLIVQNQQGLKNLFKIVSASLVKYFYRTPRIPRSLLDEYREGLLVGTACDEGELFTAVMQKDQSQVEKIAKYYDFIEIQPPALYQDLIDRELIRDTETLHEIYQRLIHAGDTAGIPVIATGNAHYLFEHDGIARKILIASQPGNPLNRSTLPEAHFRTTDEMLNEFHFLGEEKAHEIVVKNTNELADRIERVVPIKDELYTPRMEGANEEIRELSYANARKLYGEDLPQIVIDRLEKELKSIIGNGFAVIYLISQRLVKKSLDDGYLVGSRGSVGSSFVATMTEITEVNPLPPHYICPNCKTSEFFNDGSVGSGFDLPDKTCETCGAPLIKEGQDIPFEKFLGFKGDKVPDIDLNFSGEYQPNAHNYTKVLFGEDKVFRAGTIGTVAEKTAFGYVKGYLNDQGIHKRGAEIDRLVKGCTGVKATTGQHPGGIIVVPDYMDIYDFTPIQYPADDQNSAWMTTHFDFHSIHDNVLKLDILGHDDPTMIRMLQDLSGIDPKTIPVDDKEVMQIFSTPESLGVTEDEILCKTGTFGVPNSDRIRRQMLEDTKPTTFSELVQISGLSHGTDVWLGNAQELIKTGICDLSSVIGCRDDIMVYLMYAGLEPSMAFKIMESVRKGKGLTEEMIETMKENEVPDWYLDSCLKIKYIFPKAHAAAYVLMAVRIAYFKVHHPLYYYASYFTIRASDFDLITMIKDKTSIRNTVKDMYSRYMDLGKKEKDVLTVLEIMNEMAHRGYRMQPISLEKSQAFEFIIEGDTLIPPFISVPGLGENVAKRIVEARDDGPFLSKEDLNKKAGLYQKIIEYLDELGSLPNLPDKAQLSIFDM
Sequence of Escherichia coli DNA polymerase III core (Escherichia coli) (P10443 whole entry, chain 1 of 3): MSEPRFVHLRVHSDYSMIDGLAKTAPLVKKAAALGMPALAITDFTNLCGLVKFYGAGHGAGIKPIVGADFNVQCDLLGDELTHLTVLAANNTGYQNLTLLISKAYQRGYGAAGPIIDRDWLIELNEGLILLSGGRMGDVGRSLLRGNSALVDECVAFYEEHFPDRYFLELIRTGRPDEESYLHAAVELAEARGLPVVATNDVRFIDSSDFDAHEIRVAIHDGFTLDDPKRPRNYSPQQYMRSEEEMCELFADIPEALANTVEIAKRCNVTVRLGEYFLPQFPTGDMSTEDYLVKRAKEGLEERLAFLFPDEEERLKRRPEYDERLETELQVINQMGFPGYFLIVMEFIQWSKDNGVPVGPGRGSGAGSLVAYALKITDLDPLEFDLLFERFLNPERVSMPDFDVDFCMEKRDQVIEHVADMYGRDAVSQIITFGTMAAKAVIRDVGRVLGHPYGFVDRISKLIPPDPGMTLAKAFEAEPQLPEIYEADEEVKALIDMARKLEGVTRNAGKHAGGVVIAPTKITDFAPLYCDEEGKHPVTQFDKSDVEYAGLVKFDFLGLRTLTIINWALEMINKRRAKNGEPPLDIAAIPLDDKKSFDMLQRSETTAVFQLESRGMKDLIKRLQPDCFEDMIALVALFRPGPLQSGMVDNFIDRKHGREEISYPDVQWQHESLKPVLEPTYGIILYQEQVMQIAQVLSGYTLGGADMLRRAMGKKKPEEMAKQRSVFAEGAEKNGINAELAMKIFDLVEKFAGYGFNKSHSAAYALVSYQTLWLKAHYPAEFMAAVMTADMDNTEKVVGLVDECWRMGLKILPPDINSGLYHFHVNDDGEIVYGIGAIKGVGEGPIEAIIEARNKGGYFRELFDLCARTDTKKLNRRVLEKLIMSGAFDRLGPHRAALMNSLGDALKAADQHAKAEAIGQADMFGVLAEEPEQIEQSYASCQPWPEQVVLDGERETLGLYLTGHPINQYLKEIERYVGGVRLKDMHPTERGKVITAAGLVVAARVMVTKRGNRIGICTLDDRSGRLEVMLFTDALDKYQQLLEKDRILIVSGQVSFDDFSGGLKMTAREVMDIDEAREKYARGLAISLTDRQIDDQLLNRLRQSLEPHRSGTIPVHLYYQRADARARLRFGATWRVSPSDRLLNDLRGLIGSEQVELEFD
Sequence of Escherichia coli DNA polymerase III core (Escherichia coli) (P03007 whole entry, chain 2 of 3, further chain): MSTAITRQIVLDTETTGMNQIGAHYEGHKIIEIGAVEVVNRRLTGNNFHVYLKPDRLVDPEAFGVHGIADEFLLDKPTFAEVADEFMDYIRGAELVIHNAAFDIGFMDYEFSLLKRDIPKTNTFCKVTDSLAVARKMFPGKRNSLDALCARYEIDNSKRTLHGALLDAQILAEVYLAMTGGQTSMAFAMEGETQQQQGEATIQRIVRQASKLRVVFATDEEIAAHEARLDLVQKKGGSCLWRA
Sequence of Escherichia coli DNA polymerase III core (Escherichia coli) (P0ABS8 whole entry, chain 3 of 3, further chain): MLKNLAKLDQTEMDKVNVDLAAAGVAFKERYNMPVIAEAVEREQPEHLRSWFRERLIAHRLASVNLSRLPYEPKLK
Sequence of Pol I (O34996 whole entry): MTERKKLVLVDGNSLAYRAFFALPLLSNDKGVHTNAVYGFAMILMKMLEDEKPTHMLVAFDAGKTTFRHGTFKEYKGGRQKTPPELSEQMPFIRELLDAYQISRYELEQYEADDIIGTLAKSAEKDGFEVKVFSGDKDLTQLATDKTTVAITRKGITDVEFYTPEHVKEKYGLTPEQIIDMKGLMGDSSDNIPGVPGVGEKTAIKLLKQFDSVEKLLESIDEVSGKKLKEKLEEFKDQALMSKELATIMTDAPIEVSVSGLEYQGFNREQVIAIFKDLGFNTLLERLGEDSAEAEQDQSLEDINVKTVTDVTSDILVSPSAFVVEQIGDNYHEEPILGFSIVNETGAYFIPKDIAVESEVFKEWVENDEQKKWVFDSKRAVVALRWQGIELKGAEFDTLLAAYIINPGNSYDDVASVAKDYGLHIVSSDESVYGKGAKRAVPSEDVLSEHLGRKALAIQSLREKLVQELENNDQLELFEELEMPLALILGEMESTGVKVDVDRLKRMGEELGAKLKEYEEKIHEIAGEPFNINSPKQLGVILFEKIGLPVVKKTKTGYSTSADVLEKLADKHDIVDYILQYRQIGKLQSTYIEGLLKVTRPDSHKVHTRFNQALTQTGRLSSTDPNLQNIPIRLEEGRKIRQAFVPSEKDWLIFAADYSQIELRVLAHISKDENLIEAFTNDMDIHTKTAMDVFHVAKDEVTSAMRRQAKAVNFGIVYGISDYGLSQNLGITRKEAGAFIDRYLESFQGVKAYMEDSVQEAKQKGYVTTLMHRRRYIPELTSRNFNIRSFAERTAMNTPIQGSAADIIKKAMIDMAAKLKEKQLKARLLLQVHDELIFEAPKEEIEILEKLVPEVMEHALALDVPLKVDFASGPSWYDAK

For `[Cl-].[K+]` [KCl], the “Expected characteristics: inhibition by 0.15 M KCl” value (Pol III-L) is listed as “not inhibited (Not inhibited is defined as greater than 75% remaining activity)”, the “Expected characteristics: inhibition by 0.15 M KCl” value (Pol II) is listed as “not inhibited (Not inhibited is defined as greater than 75% remaining activity)” and the “Expected characteristics: inhibition by 0.15 M KCl” value (Pol I) is listed as “not inhibited (Not inhibited is defined as greater than 75% remaining activity)”.

In the case of “Escherichia coli beta subunit of DNA polymerase III holoenzyme (from UniProt P0A988 1-366)”, the Total DNA synthesis on polydA-oligodT, lane 6 (E. coli Pol III core with E. coli beta; lane 5 without beta 0.97 pmol) [1] is reported as 28.1 pmol and the stimulation of DNA synthesis by E. coli core on linear polydA-oligodT [1] is reported as > 10 fold.

B1: Staphylococcus aureus beta subunit (dnaN gene product) (protein)
chain: MMEFTIKRDYFITQLNDTLKAISPRTTLPILTGIKIDAKEHEVILTGSDSEISIEITIPKTVDGEDIVNISETGSVVLPGRFFVDIIKKLPGKDVKLSTNEQFQTLITSGHSEFNLSGLDPDQYPLLPQVSRDDAIQLSVKVLKNVIAQTNFAVSTSETRPVLTGVNWLIQENELICTATDSHRLAVRKLQLEDVSENKNVIIPGKALAELNKIMSDNEEDIDIFFASNQVLFKVGNVNFISRLLEGHYPDTTRLFPENYEIKLSIDNGEFYHAIDRASLLAREGGNNVIKLSTGDDVVELSSTSPEIGTVKEEVDANDVEGGSLKISFNSKYMMDALKAIDNDEVEVEFFGTMKPFILKPKGDDSVTQLILPIRTY
For B1, the Total DNA synthesis on polydA-oligodT, lane 4 (E. coli Pol III core with S. aureus beta; lane 3 without beta 5.1 pmol) [1] was 35.5 pmol, the stimulation of DNA synthesis by E. coli core on linear polydA-oligodT [1] was 5 fold and the Total DNA synthesis on polydA-oligodT, lane 2 (Pol III-L with S. aureus beta; lane 1 without beta 4.4 pmol) [2] was 30.3 pmol. For the same molecule, the stimulation of DNA synthesis by Pol III-L on linear polydA-oligodT [2] was 5 fold and 6 fold.

B2: DnaE polymerase: S. pyogenes DnaE (α-small) polymerase encoded by dnaE, SEQ. ID. No. 20 (protein)
chain: MFAQLDTKTVYSFMDSLIDLNHYFERAKQFGYHTIGIMDKDNLYGAYHFIKGCQKNGLQPVLGLEIEILYQERQVLLNLIAQNTQGYHQLLKISTAKMSGKLHMDYFCQHLEGIAVIIPSKGWSDTLVVPFDYYMGVDQYTDLSHMDSKRQLIPLRTVRYFAQDDMETLHMLHAIRDNLSLAETPVVESDQELADCQQLTAFYQTHCPQALQNLEDLVSGIYYDFDTNLKLPHFNRDKSAKQELQDLTEAGLKEKGLWKEPYQSRLLHELVIISDMGFDDYFLIVWDLLRFGRSKGYYMGMGRGSAAGSLVAYALNITGIDPVQHDLLFERFLNKERYSMPDIDIDLPDIYRSEFLRYVRNRYGSDHSAQIVTFSTFGPKQAIRDVFKRFGVPEYELTNLTKKIGFKDSLATVYEKSISFRQVINSRTEFQKAFAIAKRIEGNPRQTSIHAAGIVMSDDALTNHIPLKSGDDMMITQYDAHAVEANGLLKMDFLGLRNLTFVQKMQEKVAKDYGCQIDITAIDLEDPQTLALFAKGDTKGIFQFEQNGAINLLKRIKPQRFEEIVATTSLNRPGASDYTTNFIKRREGQEKIDLIDPVIAPILEPTYGIMLYQEQVMQIAQVYAGFTLGKADLLRRAMSKKNLQEMQKMEEDFIASAKHLGRAEETARGLFKRMEKFAGYGFNRSHAFAYSALAFQLAYFKAHYPAVFYDIMMNYSSSDYITDALESDFQVAQVTINSIPYTDKIEASKIYMGLKNIKGLPRDFAYWIIEQRPFNSVEDFLTRTPEKYQKKVFLEPLIKIGLFDCFEPNRKKILDNLDGLLVFVNELGSLFSDSSFSWVDTKDYSVTEKYSLEQEIVGVGMSKHPLIDIAEKSTQTFTPISQLVKESEAVVLIQIDSIRIIRTKTSGQQMAFLSVNDTKKKLDVTLFPQEYAIYKDQLKEGEFYYLKGRIKERDHRLQMVCQQVQMAISQKYWLLVENHQFDSQISEILGAFPGTTPVVIHYQKNKETIALTKIQVTENLKEKLRPFVLKTVFR
For B2, the “Speed of primer extension” value [3] was “at least 60 nucleotides/s” and the “Time to complete M13mp18 primed ssDNA template” value ([3]; absence of β, presence of τδδ′) was ≤ 2 min.
